Assay results reported in US11795488B2, “Methods for enzymatic peptide ligation” (NANYANG TECHNOLOGICAL UNIVERSITY, priority 2016, dated 2023).

What was measured:
peptide substrate = assay: Comparison of cyclization efficiency of gate-keeper Cys247 mutants (MALDI-TOF MS); assay type: biochemical
Protocol: (§1) Native and modified amino acids were purchased from Sigma-Aldrich (USA). All peptides used in this manuscript were synthesized in-house using the solid-phase method and HPLC purified. Cyclization assays were performed in 50-μl reaction mixtures containing 20 mM phosphate buffer, ligases (5 to 700 nM) and peptide substrates (10 to 300 μM). Each reaction was performed in triplicate at 37° C. and quenched by adding 5 μl of 1 M HCl solution. The peptides were separated by using a reversed-phase C18 analytical column (150×2.1 mm, Vydac) with a linear gradient from 10% to 50% acetonitrile over 15 min on a Nexera UHPLC system (Shimadzu). For kinetic analysis, the concentrations of WT OaAEP1, mutant OaAEP1, and butelase 1 were fixed at 700 nM, 50 nM, and 20 nM, respectively. The cyclization velocities were calculated by converting the HPLC-peak areas of remained linear precursors or the cyclized products into concentrations. The identity of each HPLC peak was analyzed by MALDI-TOF MS (ABI 4800 MALDI TOF/TOF). The velocities were input into GraphPad Prism (GraphPad Software, San Diego) to obtain the Michaelis-Menten curve and the kinetic parameters (kcat and Km). Comparison for the cyclization efficiency of various OaAEP1 mutants were performed in a volume of 20 μl of the reaction mixture and analyzed by MALDI-TOF MS after 10 mins or 1 hour ligation reaction.
The pre-ligation conformation of OaAEP1 captured in the present structure was then analyzed to identify several key features that could differentiate an AEP protease from an AEP-like ligase. […] In contrast to AEP proteases, the surface of OaAEP1 facing the catalytic Cys217 appears to be more widely open. Three cysteine residues (Cys247, Cys250, Cys264) are aligned along a shallow cleft at the surface of the enzyme (FIGS. 3C and 3E). Unlike the surface of AEP proteases that contains several bulges, both butelase 1 (using a homology model based on OaAEP1b) and OaAEP1 have residues with smaller side-chains along this patch. A disulfide bond is formed between Cys250 and Cys264, which are conserved in AEP-like ligases butelase 1 and OaAEP1b. This covalent bond is likely to stabilize the local structure and provide an adequate surface allowing the approach of an N-terminal amine incoming group. Conversely, the corresponding surface patch of AEP proteases (PDB: 4AWA) is lined with residues having bulky side-chains like Tyr (FIG. 3E) blocking this channel. It was therefore hypothesized that residue Cys247 which is located at the extremity of the substrate channel is likely to function as a final nucleophile filter (or “gate-keeper”), allowing attack from the N-terminal amine to complete the ligation reaction. […]

RAW cell = assay: Cell surface labeling with fluorescently tagged SNAP protein; assay type: cell-based, human; conditions: 10 μM SNAP-NGL, 0.1 μM Quicklase, 30 minutes˜1 hour
Protocol: (§2) (b) Fluorecently tagged SNAP (New England Biolabs) protein was conjugated to the intrinsic cellular surface proteins of two different cell lines, RAW cell ([…]) and HEK293T (human epithelial cell line). 10 μM modified SNAP protein (with additional C-terminal NGL residues, lane 1 sample) with or without (lane 2 and lane 5 samples) coincubation of 0.1 μM Quicklase were added to cell culture, pre-washed with PBS buffer. After 30 minutes˜1 hour incubation, cells were rinsed with additional PBS buffer (lane 3 and lane 6 were first wash samples), two times. The remaining cell was harvested and lysed with SDS loading buffer (lane 4 and 7 samples). All samples were examined using SDS-PAGE, and only the covalently fluorescently tagged SNAP protein carried the signal on the gel, which were shown as dark bands in (b). […] (c) Surface modified RAW cells were examined using a fluorescent microscope, bright spots on the cellular surface indicated successful surface labelling of intrinsic cellular membrane.
(§3) 0.1 to 1 μM of OaAEP1 Cys247Ala was added to cellular culture in standard cell culture conditions. 1-20 μM labeling protein tags were added to the reaction afterwards, and incubated for 30-45 mins at 37° C. and standard culturing condition, before both excess enzymes and labelling tags were washed away. […]

HEK293T = assay: as above; assay type: cell-based, human; conditions: 10 μM SNAP-NGL, 0.1 μM Quicklase, 30 minutes˜1 hour
Protocol: as §2, §3

[1] = test system: ubiquitin with C-terminal Asn-Gly-Leu and peptide having N-terminal residues GlyLeu; assay: Ligation of ubiquitin with a peptide; assay type: biochemical
Protocol: (§4) (a) Fluorescence detection using 02 benzylcytosine-Alexa647 of the SNAP protein and SDS PAGE analysis with Comassie blue staining detection of the protein substrate and ligated products. The reaction is schematically depicted as inset. Cys247Ala ligates well folded protein well. […] (b) As little as 30 nM Cys247Ala catalyze ligation of 100 μM Ubiquitin and 500 μM biotin labelled peptide efficiently in 30 min, at room temperature, in pH 7.4 PBS buffer.
(§5) The ability of Cys247Ala to ligate ubiquitin with a peptide was first tested. The three residues“Asn-Gly-Leu” were added to the C-terminus of ubiquitin to make it recognizable by Cys247Ala. Another peptide having N-terminal residues GlyLeu was used as the add-on component. At a protein: peptide molar ratio of 1:5, Cys247Ala catalyzed the ligation of more than 90% ubiquitin with the peptide within 10 min (FIG. 6). An amount of 30 nM of Cys247Ala was enough for the reaction compared to 10-30 μM of sortase A typically required to perform productive ligations. […] Ubiquitin having the same “Asn-Gly-Leu” modification at its C-terminal end and a N-terminal modified SNAP (NEB) tag protein were used as substrates. […] Protein ligation can be performed within minutes at neutral pH and at room temperature.

[2] = test system: peptide substrate "GLPVSTKPVATRNGL" (SEQ ID NO: 18); assay: Peptide cyclization assay, kinetic analysis (HPLC/MS); assay type: biochemical
Protocol: as §1
The peptide cyclization activity of mature OaAEP1 was then analyzed using MS and the peptide substrate “[…]” (SEQ ID NO: 18) (FIG. 5A). The turn-over rate (kcat) for OaAEP1 is 0.052 s^−1, a value in good agreement with the previous report (Harris, K. S., et al., Nat Commun, 2015. 6: p. 10199). Likewise, the cyclization activity of butelase 1 extracted from plant was measured using the 15 residues peptide “[…]” (SEQ ID NO: 19) (FIG. 5A) leading to a kcat about 90 times faster than OaAEP1 b.

[3] = test system: ubiquitin and SNAP tag protein; assay: Ligation of two well-folded proteins; assay type: biochemical
Protocol: as §4, §5

B1: Cys247Ala: OaAEP1 Cys247Ala (Quicklase), Asx-specific peptide ligase having the amino acid sequence of SEQ ID NO:1 (protein, listed as Ovaloparmena affinis)
chain: MVRYLAGAVLLLVVLSVAAAVSGARDGDYLHLPSEVSRFFRPQETNDDHGEDSVGTRWAVLIAGSKGYANYRHQAGVCHAYQILKRGGLKDENIVVFMYDDIAYNESNPRPGVIINSPHGSDVYAGVPKDYTGEEVNAKNFLAAILGNKSAITGGSGKVVDSGPNDHIFIYYTDHGAAGVIGMPSKPYLYADELNDALKKKHASGTYKSLVFYLEACESGSMFEGILPEDLNIYALTSTNTTESSWAYYCPAQENPPPPEYNVCLGDLFSVAWLEDSDVQNSWYETLNQQYHHVDKRISHASHATQYGNLKLGEEGLFVYMGSNPANDNYTSLDGNALTPSSIVVNQRDADLLHLWEKFRKAPEGSARKEEAQTQIFKAMSHRVHIDSSIKLIGKLLFGIEKCTEILNAVRPAGQPLVDDWACLRSLVGTFETHCGSLSEYGMRHTRTIANICNAGISEEQMAEAASQACASIP
Peptide substrate; N-terminal amine group acetylated
  alternative reaction when N-terminal amine is not available: side chain ligation is more preferred
Peptide substrate; gate-keeper position 247 mutants
  ligase activity compared to WT OaAEP1: significantly improved enzymatic properties
RAW cell
  conjugation of SNAP protein to intrinsic cellular surface proteins: significant amount of intrinsic proteins in RAW and HEK283T cells were conjugated with SNAP protein
HEK293T
  conjugation of SNAP protein to intrinsic cellular surface proteins: significant amount of intrinsic proteins in RAW and HEK283T cells were conjugated with SNAP protein
[1]; 100 μM Ubiquitin, 500 μM biotin labelled peptide, 30 min, room temperature, pH 7.4 PBS
  enzyme concentration that catalyzes ligation efficiently: 30 nM
[1]; protein: peptide molar ratio 1:5, within 10 min
  ubiquitin ligated with the peptide: more than 90%
[1]; ubiquitin-peptide ligation
  amount of enzyme enough for the reaction: 30 nM
[2]
  kcat relative to WT OaAEP1b: approximately 160 times
  peptide ligase catalytic activity relative to wild type OaAEP1: ~160 times
[3]
  protein ligation activity (control ligation experiments): protein ligation activity could only be observed in the presence of the Cys247Ala protein
[3]; 5 μM SNAP tag protein, 8 μM ubiquitin, 100 nM enzyme
  individual substrate proteins ligated into a single polypeptide product: more than 60%
[3]; 5 μM SNAP tag, 100 nM Cys247Ala, 4000 nM wild type OaAEP1b
  ligation of SNAP tag protein with Ubiquitin: efficiently ligated
